# In the NTF2 design screens of Basanta et al. (2020):
# Assay: protease stability score; higher = more stable; yeast display proteolysis, trypsin and chymotrypsin;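 further: relative to predicted unfolded state with 0 unfolded-like and 1 meaning tenfold more protease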
row,Sequence,protease stability score
1,EEDDEILEKAIRLHEHMLRTGDPREFWELADPHYKLNIGDKHIHGRETLLRHTLHKIEEYGFKHSRFVPKDWELQGDKIHLRGELILHFNGREHRYDYHIEAIKVNGQWVLHRIDIQ,1.23
2,DETHELIEFLLKEMIEAWKTGNEEKIMELFDPNVRLDIGDKHYHGREEVVRAMHEYRRRLGAKHITLHDHSVVNGVIHIDTVVNQGDKEVTIHIHIHIVDGKIKRIEIRLK,2.07
3,SELDEDFRHMVELFAFHMLTGDEHEVHRLADPHYRYEQGDKNIIGRDEWIRFLREIRIHVNSIHIRRLDYVGDKIEADVHFDVLIHVNGVRIRHRHDSHLFWEKVDGRWVLHSVRVL,1.36
4,SEDEKNSRKFLEDWIRALETGDEHRLEELLDPHVLVIVDGVHYWGMEIFLKERRRHGFKLKDVRLEHMTIQGDKVILHVQIEVHINGRDHHLESYIIIEKVNGRWHVSKLELR,2.71
5,DEERKDTKEAIERVRDTWRTGDEQDIFNNVDPNTRMIVGDKHHHGMEDVARLAFEWRVHDFRFHEVHSSEDHVILDGRVDGEINGRRINTKMILILLKIDGRWHIESIQYI,0.805
6,DEDEELVKKFFKEHSESNRTGDWHTIMKQADPNARIFINGVILHGRELFTEHMMRMVRRADHFHFHLEDMRVINGRAELDVHVHLNINGKIDNVETHFIVIKINGRWRLEESRFH,0.661
7,SEIERLLEEWMELVIHSWLTGNEELFTRMFDPNTRLEVEVGDKHDRHIGREEANKWMETLRREIRIEDIEIKEVRIFDGVAHNDGTLHRRVGDKKDYVRVRLILIIYNGKIHHVKIIVR,1.03
8,DEDKKLHHEALEVWERVLKTGNFRIESEYLDPHARNEFEGRHFHGRELFHELNEELGVENVRFHHFHVHDLETFNGRILMRFHMEGEINGQQFNVEVKVDTEKYDGVWFTRSFVER,0.38
9,DERFELFDWVVRLILHAHHTGDERIIHELADPNVRYIINGVTVHGRELMYRLAHEHLREIWVHHVQVRHFDVVGDFFRVEMEVVGLVNGVHYNEHRRLHLYVVNGRLKSSRIEIE,1.03
10,DESQRDAHHASELVELVEKTGDWKMFEKLLDPHVRLQVGDKEFHGRHEAMRWIRETLERLGIDHREVRIEHIEFIGDKMIIHGEIILRFNGVTITHEEEFIVKKINGKWRMHEIRVR,1.29
11,SDEEHLAERASKEWRHSVRTGDEHQLHEMIDPHVKLIVGDKEFHGREHFLEHLKHLRIKNVDIKRIRIIGDKVEIDSELHGHVNGVEIRTREHIHIEKIDGRWVITEVIWV,0.955
12,SEEEEQVERAIKLTEELIDTGNWKEISKLADPNARLNVNGREFHGREMVSENIKRFFEELGVDHIEVKHIRIQGNKVEVDTELRVGDKYHDLHLLFLKVNGQWLLKEVTVR,1.22
13,SEEEEWLRRYRHLFKHLWTTGDWRTLEELLDPRTRIDIDVGDKRYHIHGREDAVEFFHRERRELGIDHIEDKRTRVIDGQVEIHGKIHVDGRDETRTIHVIVVNGRMKYLYFHVE,0.5
14,SEEEEDVRKFVHMLMLSFITGDWKMLWEMLDPEVRLHVGDKTIIGRERFVSFMQRLLRELRIKDFHVDSIEIQGEKAIIHTTLHIVIGEKEEDRYVRYIVIKIDGRWLIHRVHIH,2.74
15,DEDEEFSKEAFEMVEWVIRTGDERLIEHMMDPNAKILIDGQEFWGRHIFSKHVEELGIDHIDDFQVKDVTFFNGRVNLNGELRGNFNGKETTFELHTIALKVNGQWINHSLEIK,0.658
16,SEEDEHSERALTLLNHLIMTGDFHDWERFFDPHVRFVVNGVEFHGREDVVRFLLELLERFKNVKIEMESWEIQGDKITSHYHEHVNGVRIERTVIMRKFNGRWFIQEVRFN,0.281
17,DEDDEMWRELFEMYIRLARTGDEKADELLMDPDARIEIGDKRWHGREWTHFFLERVDHVHRVEFRVDDRRIQGDKVDVDGTFILDIHQGDKRIHTSIRSHLTVLKVDGKWRVHQMELR,1.73
18,DEFTELTREVLHRIVTHLRTGNEEELARLMDPNARLEINGKEFHGREEILRLIHELEKKMGIKHVDMVIRRDTIIGDYARVNGEIIIIVDGKEIRLDTEIFILKIDGKWFIRTESIR,1.21
19,SEEERIMEEVSNLILDILYTGDWRRFLKLADPRTRSEINGVELIGMENHFKMWEHWRIKHIDMHSHESQGDKAIAHTRHRGEINGRERDVDTNLFVLVVNGRLKQIRLEFV,1.25
20,SEEEHHAEEFVKIFTMTNLTGDFTTLEKLADPNVQIDVGDKHFHGREEMLKLIQDERREFGFKHLHLEIDRIETQGNFLDVHITVIIRVNGVEMRHKRRLTILKIDGQWHIKSVEVD,1.27
21,DESKEAAELFIKQVERSTKTGDERLFEEFIDPHMRLEIGEFDYHGREFLHITLRDLGMEIRTFIVKDIKVQGDKARIRVEEHIQVNGVEQRRQVKYVIDKFDGRWEIHSVHFD,0.392
22,HEERDLAMHVIKRFIDSTVTGNEQDLTKLLDPHVRIEQGEYHDHGWKYAQLMIERFRNVRIELRIHFIRVQGDKVQVDIDWEVHIGDKVISSRLEMYIIKVNGVWLIRYVIFE,0.854
23,DEDREMVEEVIRERLEDLKTGDWKKLADLADPHVRLDVGDKEYHGREEFTKTFTDILRILGHSNIQTDLKHIDFFDGRLDVHQTVHIGDKTIHHQILFHKFDGKWKITEMRITIR,0.928
24,SETEEAVKKVTHDLWHALLTGDEEIIRDLFDPHTKILINGVELHGMDEHKDFLDRFDHIHVHDRRIETVIVQGDKAISIGHIHVRFEYGDKHVSVHSEQRLIITKIDGKWIIRFVEIG,1.22
25,SEEEREIREIMKRFVQSFYTGDEHSLKKLLDPNVRHEFNGKEEHGWHRVWEDLAFFLRHIRIKHVVLRDVRVQGDKVHAHVEIHEEWDGRERDVEVHMRLEIVDGVVKSVKIEIQ,1.43
